Laboratory results published in US20200399394A1.

Experiments:
[1] = molecular target: human CD39 (ectonucleoside triphosphate diphosphohydrolase 1) (UniProt P49961); test: ForteBio (BLI); IgG, monovalent
[2] = molecular target: human CD39 (ectonucleoside triphosphate diphosphohydrolase 1) (UniProt P49961); test: MSD equilibrium; Fab

- Kd [1]: 2.94 nM
- Kd [2]: 0.053 nM
Substance: SRF399-C
